For one protein, Km results are on record in PMC9870871, “Investigating the effects of cyclic topology on the performance of a plastic degrading enzyme for polyethylene terephthalate degradation” (Scientific Reports, 2023).

Substrate in the series: CC(=O)Oc1ccc([N+](=O)[O-])cc1
Kind of series: purified protein. Type of series: biochemical, Pseudideonella sakaiensis. The note with it: 50 mM Na2HPO4 pH 7.5, 30 °C, 5% v/v DMSO, 10 nM enzyme, 0-5.0 mM substrate.

B1: IsPETase-WT (Pseudideonella sakaiensis) (protein)
chain: QTNPYARGPNPTAASLEASAGPFTVRSFTVSRPSGYGAGTVYYPTNAGGTVGAIAIVPGYTARQSSIKWWGPRLASHGFVVITIDTNSTLDQPSSRSSQQMAALRQVASLNGTSSSPIYGKVDTARMGVMGWSMGGGGSLISAANNPSLKAAAPQAPWDSSTNFSSVTVPTLIFACENDSIAPVNSSALPIYDSMSRNAKQFLEINGGSHSCANSGNSNQALIGKKGVAWMKRFMDNDTRYSTFACENPNSTRVSDFRTANCS
notes: linear wild-type enzyme, synthetic gene in pET-28a(+) or pET-21b(+), E. coli Shuffle T7 Express, Ni-NTA and SEC; monomer
Consider B1, for which the Michaelis-Menten constant (Km) came out at 2700 ± 300 µM.

Broadly, the Km is the substrate concentration at which the rate is half of its maximum.
